How the values were obtained:
SEC + SEC-MALS = molecular target: the molecule itself; experiment: SEC + SEC-MALS
crystal structure = molecular target: the molecule itself; experiment: crystal structure
[1] = molecular target: His-tagged TRIM25-CC (coiled-coil domain of TRIM25, 189-379) (human, UniProt Q14258 189-379); experiment: BLI; […] (~12 ug/ml); […]; 25 °C; 50 mM HEPES pH 7.5, 150 mM NaCl, 1 mM DTT, 0.005% Tween-20; […]; settings: both partners purified

B1: Human TRIM25 CC-PRYSPRY domain (residues 189-630) (domain or fragment)
chain: ASLSQASADLEATLRHKLTVMYSQINGASRALDDVRNRQQDVRMTANRKVEQLQQEYTEMKALLDASETTSTRKIKEEEKRVNSKFDTIYQILLKKKSEIQTLKEEIEQSLTKRDEFEFLEKASKLRGISTKPVYIPEVELNHKLIKGIHQSTIDLKNELKQCIGRLQEPTPSSGDPGEHDPASTHKSTRPVKKVSKEEKKSKKPPPVPALPSKLPTFGAPEQLVDLKQAGLEAAAKATSSHPNSTSLKAKVLETFLAKSRPELLEYYIKVILDYNTAHNKVALSECYTVASVAEMPQNYRPHPQRFTYCSQVLGLHCYKKGIHYWEVELQKNNFCGVGICYGSMNRQGPESRLGRNSASWCVEWFNTKISAWHNNVEKTLPSTKATRVGVLLNCDHGFVIFFAVADKVHLMYKFRVDFTEALYPAFWVFSAGATLSICSPK
notes: also called TRIM25 coiled-coil-PRY-SPRY
Q: Which “stoichiometry N” value (SEC + SEC-MALS) does the source give for B1 here?
A: 2

B2: TRIM25-CC (coiled-coil domain of TRIM25, 189-379), tag removed (domain or fragment)
chain: ASLSQASADLEATLRHKLTVMYSQINGASRALDDVRNRQQDVRMTANRKVEQLQQEYTEMKALLDASETTSTRKIKEEEKRVNSKFDTIYQILLKKKSEIQTLKEEIEQSLTKRDEFEFLEKASKLRGISTKPVYIPEVELNHKLIKGIHQSTIDLKNELKQCIGRLQEPTPSSGDPGEHDPASTHKSTRP
Q: Does B2 bind (crystal structure)?
A: binds

B3: NS1-ED (effector domain of NS1, 79-230) (domain or fragment)
chain: MTMASVPASRYLTDMTLEEMSRDWSMLIPKQKVAGPLCIRMDQAIMDKNIILKANFSVIFDRLETLILLRAFTEEGAIVGEISPLPSLPGHTAEDVKNAVGVLIGGLEWNDNTVRVSETLQRFAWRSSNENGRPPLTPKQKREMAGTIRSEV
Q: With B3 as the binder, how does the Kd [1] read?
A: 16.1 µM

— publication PMC5940772 (Nature Communications, 2018)
